This is an account of results in article PMC7961048, “Hierarchized phosphotarget binding by the seven human 14-3-3 isoforms” (Nature Communications, 2021).

Test [1] addresses 14-3-3β (UniProt P31946). As to the kind of experiment: competitive FP, FITC-HSPB6 phosphopeptide tracer. Particulars: reference: unphosphorylated 18E6 peptide; sites T156.
The target in test [2] is 14-3-3η (UniProt Q04917). Description: competitive FP, FITC-HSPB6 phosphopeptide tracer. To be noted: reference: unphosphorylated 18E6 peptide; sites T156.
Test [3] deals with 14-3-3τ (UniProt P27348). As to the kind of experiment: competitive FP, FITC-HSPB6 phosphopeptide tracer. To be noted: reference: unphosphorylated 18E6 peptide; sites T156.
Test [4] has as its target 14-3-3ζ (UniProt P63104). Description: competitive FP, FITC-HSPB6 phosphopeptide tracer. To be noted: reference: unphosphorylated 18E6 peptide; sites T156.
The target of test [5] is 14-3-3γ (UniProt P61981). Description: competitive FP, FITC-HSPB6 phosphopeptide tracer. To be noted: reference: unphosphorylated 18E6 peptide; sites T156.
Test [6] concerns the target 14-3-3σ (UniProt P31947). Description: competitive FP, FITC-HSPB6 phosphopeptide tracer. Particulars: reference: unphosphorylated 18E6 peptide; sites T156.
For test [7], the target named is 14-3-3ε (UniProt P62258). Description: competitive FP, FITC-HSPB6 phosphopeptide tracer. To be noted: reference: unphosphorylated 18E6 peptide; sites T156.
Test [8] concerns the target phosphorylated 14-3-3ζ-18E6 chimera (14-3-3ζ∆C-GGGG-18E6 PBM) (human | human papillomavirus type 18) (UniProt P63104). Description: crystal structure.

As for “HPV18 E6 (18E6) (from UniProt P06463) p18E6 peptide”, the “binding against the reference” value in test [1], in test [2], in test [3], in test [4], in test [5] and in test [6] was “gained” in each case. The “binding against the reference” value in test [7] was “gained”.

The stoichiometry N is the number of molecules, sites or subunits per partner or assembly. Regarding “phosphorylated 14-3-3ζ-18E6 chimera (14-3-3ζ∆C-GGGG-18E6 PBM) (from UniProt P63104 1-229)”, the stoichiometry N in test [8] is 2.
